Assay results taken from patent US10759835B2, “Monomeric streptavidin mutants, methods of using the same and processes of manufacturing proteins” (The Research Foundation for The State University of New York, priority 2016, dated 2020).
Several values for one entry are separate records, joined by “and”; a condition that tells them apart may be missing. Identical values can stand only once.

Key:
[1] = Fluorescence polarization spectroscopy, biotin dissociation rate (koff); type: binding; conditions: for t1/2: dissociation half-life t1/2=0.693/koff, biotin-fluorescein; for t1/2 / Koff(×10^−3 min^−1): 37° C.; for Koff(×10^−3 min^−1): dissociation of biotin-fluorescein, excess free biotin 100 μM
Procedure: FIG. 4. In vitro characterization of purified mSA mutants. a) Stability of mSA-RF and mSA-RWT in PBS was measured by circular dichroism spectroscopy with or without biotin. b) Fluorescence polarization spectroscopy was used to measure the dissociation rate of biotin-fluorescein. The dissociation rate, koff, was computed by fitting normalized fluorescence polarization data, or bound fraction f, to an exponentially decaying function, i.e. ƒ=e^−k^off^*t The measurements were taken at 37° C. c) The equilibrium affinity of binding Kd between mSA-RF and biotin-fluorescein was measured by FP. d) mSA-S25H and mSA-RF were analyzed by size exclusion chromatography to estimate their molecular weights in solution. Each mutant eluted with a retention time that was consistent with monomeric streptavidin. The molecular weight standards (arrows) correspond to 66.0, 29.0, 12.4 and 6.5 kDa from left to right.
The binding of biotinylated fluorescein (bf, AnaSpec) was measured using a microplate reader (SpectraMax® i3 Microplate reader from Molecular Devices) in flat bottom 96 well plates (Sterilin Ltd). To measure Kd, 100 nM bf was first mixed with titrating amounts of mSA in PBS containing 0.1 mg/ml bovine serum albumin (BSA). After overnight incubation at room temperature, the fluorescence polarization values were measured and fit to the quadratic binding equation (Hsu and Park, 2010, J Mol Graph Model, 29, 295-308). To measure the off rate (koff), 10 nM bf was first mixed with 50 nM mSA and incubated for 2 hr to form a biotin-mSA complex. To observe dissociation of bf, excess free biotin was added to a final concentration of 100 μM and recording of fluorescence was started immediately. The intensity of polarized fluorescence was measured at various time points and normalized with respect to the value at t=0 min. The intensities were fit to an exponentially decaying function e^−k^off^*t to compute koff. The dissociation half-life t1/2=0.693/koff.
We measured the biotin dissociation rate of various mSA mutants by fluorescence polarization spectroscopy. Table 2 presents the biotin dissociation rate (koff) of various mutants measured by fluorescence polarization spectroscopy. The S25R mutation lowered koff by nearly 21 fold compared to the original mSA and 3.3 fold compared to the S25H mutant (Table 2, FIG. 4b).

[2] = system: HEK293 cells displaying biotinylated AP-CFP; experiment: Fluorescent labeling of cell surface biotinylated receptor, confocal microscopy; type: cell-based
Source text: FIG. 5. Fluorescent labeling of HEK293 cells displaying biotinylated receptor. a) HEK293 cells displaying biotinylated AP-CFP were labeled with Alexa488-conjugated mSA-RWT and imaged by fluorescence microscopy. Fluorescence was filtered for (i) CFP and (ii) Alexa488 and the same field of vision was imaged multiple times at regular intervals to measure the stability of labeling. iii. DIC. mSA-RWT binds only CFP positive cells, indicating high specificity of interaction. b-c) HEK293 displaying unrelated protein fused to CFP b) or untransfected HEK293 c) were treated with purified BirA and then labeled with fluorescent mSA-RWT as in part (a) (i)-(iii) the same as before. d) The captured fluorescence images of mSA-RWT—Alexa488 labeled cells (in jpg format) were loaded into MatLab and the amount of CFP and Alexa488 fluorescence was quantified by summing over pixel values. The fluorescence intensity was normalized with respect to the value at t=0. e) Cells labeled with mSA-RF—EGFP were similarly imaged and analyzed to determine the time dependent loss of mSA labeling.
Adherent HEK293 cells were seeded in a 24 well plate (Becton Dickinson) and grown in DMEM supplemented with 10% FBS and antibiotic/antimycotic (Invitrogen). At 50% confluency, the cells were transfected with a plasmid containing pDisplay-AP-CFP-TM. After 2 days the wells were supplemented with 100 nM purified BirA, 5 mM ATP, and 0.3 mM biotin and the biotinylation reaction was carried out overnight. The following morning, the cells were detached from the wells using EDTA Solution (Versene from Life Technologies), washed with PBS containing 0.1% w/v BSA (PBSF), and fixed in 4% paraformaldehyde solution. Prior to microscopy, cells were labeled with 1 μM mSA-RWT—Alexa488 or 1 μM mSA-RF—EGFP in PBSF for 30 minutes. Excess protein was washed away and cells were switched to PBSF with 0.9 mM biotin. Each sample was mounted on slides and imaged using confocal microscopy. The same field of view was imaged every 10 min for 60 min to quantify fluorescence loss as a function of time. The captured images were analyzed with microscope software (ZEN from Zeiss, and MatLab® from MathWorks).
We tested the use of mSA-RWT or mSA-RF in cell imaging, in which biotinylated proteins on the cell surface were labeled with Alexa488 conjugated mSA-RWT or mSA-RF fused to EGFP, and imaged by fluorescence confocal microscopy. Cell imaging is an important test of whether engineered mutants can specifically interact with biotinylated ligands in a heterogeneous environment, in which other potentially competing interactions can interfere with desired detection. […]
To evaluate the stability of labeling, we imaged the labeled cells repeatedly over 1 hr and quantified the fluorescence intensity of Alexa488 or GFP at regular intervals. […]

[3] = currently available mSA, Lim et al.; cited from earlier work

| Molecule | t1/2 [1] | Koff(×10^−3 min^−1) [1] | also measured |
| --- | --- | --- | --- |
| mSA-R: monomeric streptavidin mutant SEQ ID NO: 2, S25R (S13R in SEQ ID NO: 1 numbering) (protein, Modified streptavidin) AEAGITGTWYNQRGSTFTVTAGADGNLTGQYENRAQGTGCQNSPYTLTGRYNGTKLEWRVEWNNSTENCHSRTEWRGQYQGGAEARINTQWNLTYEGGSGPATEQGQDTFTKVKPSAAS | 4.62 ± 0.2 h | 2.51 ± 0.11 ×10^−3 min^−1 | fold lowering of koff compared to the S25H mutant [1]: 3.3 fold; fold lowering of koff compared to the original mSA [1]: ~21 fold and 25 fold; t1/2 ([1]; listed as S25R): 4.62 h |
| mSA-ERF: monomeric streptavidin mutant SEQ ID NO: 8, Q24E, S25R, T48F (protein, Modified streptavidin) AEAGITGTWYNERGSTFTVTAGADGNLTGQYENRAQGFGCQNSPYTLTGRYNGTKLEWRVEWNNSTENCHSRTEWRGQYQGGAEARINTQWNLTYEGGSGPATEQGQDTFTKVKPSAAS | 1.26 ± 0.03 h | 9.15 ± 0.21 ×10^−3 min^−1 |  |
| mSA-H: monomeric streptavidin mutant SEQ ID NO: 5, S25H (protein, Modified streptavidin) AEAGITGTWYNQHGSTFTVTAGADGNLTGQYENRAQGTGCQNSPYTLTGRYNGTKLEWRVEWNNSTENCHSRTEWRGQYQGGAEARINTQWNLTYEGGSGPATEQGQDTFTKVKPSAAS | 1.41 ± 0.0517 h | 8.19 ± 0.31 ×10^−3 min^−1 |  |
| mSA-RWT: monomeric streptavidin mutant SEQ ID NO: 4, S25R, T48W, E124T (protein, Modified streptavidin) AEAGITGTWYNQRGSTFTVTAGADGNLTGQYENRAQGWGCQNSPYTLTGRYNGTKLEWRVEWNNSTENCHSRTEWRGQYQGGAEARINTQWNLTYEGGSGPATTQGQDTFTKVKPSAAS | 5.48 ± 0.35 h | 2.11 ± 0.13 ×10^−3 min^−1 | off rate / dissociation half-life compared with another mutant ([1]; result in words): longer than mSA-S25R; Alexa488/GFP fluorescence of labeled cells over time ([2]; after 1 hr, 900 μM biotin in the labeling solution): remained high; labeling of cells displaying biotinylated AP-CFP ([2]; fixed HEK293 cells, 1 μM for 30 minutes): Only CFP positive cells were labeled selectively |
| mSA-ER: monomeric streptavidin mutant SEQ ID NO: 6, Q24E, S25R (protein, Modified streptavidin) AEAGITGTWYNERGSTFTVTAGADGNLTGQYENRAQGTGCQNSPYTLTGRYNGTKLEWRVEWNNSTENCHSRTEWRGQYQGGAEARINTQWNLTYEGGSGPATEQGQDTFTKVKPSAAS | 1.14 ± 0.102 h | 10.2 ± 0.91 ×10^−3 min^−1 |  |
| mSA: engineered monomeric streptavidin, reference sequence SEQ ID NO: 1 (Lim et al. 2013) (protein, monomeric streptavidin) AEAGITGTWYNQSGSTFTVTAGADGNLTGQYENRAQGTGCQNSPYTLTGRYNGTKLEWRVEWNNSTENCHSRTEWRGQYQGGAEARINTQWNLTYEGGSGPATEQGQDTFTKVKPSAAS | 0.183 h | 63 ×10^−3 min^−1 | biotin dissociation koff [3]: 0.00105 s⁻¹; dissociation t1/2 [3]: 0.183 h |
| mSA-DRF: monomeric streptavidin mutant SEQ ID NO: 9, Q24D, S25R, T48F (protein, Modified streptavidin) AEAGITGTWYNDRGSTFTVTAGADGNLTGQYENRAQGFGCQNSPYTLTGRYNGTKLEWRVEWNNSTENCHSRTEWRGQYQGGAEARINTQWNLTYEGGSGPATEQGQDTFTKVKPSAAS | 0.778 ± 0.0217 h | 14.9 ± 0.41 ×10^−3 min^−1 |  |
| mSA-ERWT: monomeric streptavidin mutant SEQ ID NO: 10, Q24E, S25R, T48W, E124T (protein, Modified streptavidin) AEAGITGTWYNERGSTFTVTAGADGNLTGQYENRAQGWGCQNSPYTLTGRYNGTKLEWRVEWNNSTENCHSRTEWRGQYQGGAEARINTQWNLTYEGGSGPATTQGQDTFTKVKPSAAS | 1.19 ± 0.0283 h | 9.73 ± 0.24 ×10^−3 min^−1 |  |
| mSA-DR: monomeric streptavidin mutant SEQ ID NO: 7, Q24D, S25R (protein, modified streptavidin) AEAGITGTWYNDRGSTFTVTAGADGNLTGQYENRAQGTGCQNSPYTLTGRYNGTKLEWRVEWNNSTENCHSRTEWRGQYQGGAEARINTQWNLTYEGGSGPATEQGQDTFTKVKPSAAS | 0.568 ± 0.02 h | 20.3 ± 0.69 ×10^−3 min^−1 |  |
| mSA-DRWT: monomeric streptavidin mutant SEQ ID NO: 11, Q24D, S25R, T48W, E124T (protein, Modified streptavidin) AEAGITGTWYNDRGSTFTVTAGADGNLTGQYENRAQGWGCQNSPYTLTGRYNGTKLEWRVEWNNSTENCHSRTEWRGQYQGGAEARINTQWNLTYEGGSGPATTQGQDTFTKVKPSAAS | 0.717 ± 0.0233 h | 16.1 ± 0.52 ×10^−3 min^−1 |  |
